The nature of the series: yeast display, Sf9 membrane polyspecificity reagent, FACS + sequencing; frameworks hold sequencing errors. Summed up:
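Polyreactivity labels are assigned by the sorting gate from which each nanobody was recovered. The gates were low and high (top ~1%), set on anti-HA fluorescence for expression and streptavidin fluorescence for reagent binding. Before sorting, galactose-induced (36–48 hours) yeast display cells were stained for 1 hour at 4 °C with 10% biotinylated, detergent-solubilized Sf9 membrane reagent.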
With “QVKLVESGGGLVQAGGSLRLSCAASGSTFYQNAMGWYRQAQGKEREFVAAISGSGDRTNYADSVKARFTISRDNAKNTVYLQMNSLKPEDTAVYFCAARGQPGRRTSSGFFSGGYCGQGTQVTVSS”, the “polyreactivity (PSR sort gate)” value is recorded as “high polyreactivity”.
The value for “QVQLVESGGGLVQAGGSLRLSCAASGSIFYRNAMGWYRQAPGKERELVAAISWSGASTSYADSVKGRFTISPDNAKNTVYLQMNSLIPDATAVYYCNAGKYAYLWLKLFAPKLDYWGQGTQVTVSS” was “low polyreactivity”; that for “QVQLVESGGGLVQAGGSLRLSCAASGSIFGLNGMGWYIQAPGKERELVASISASGGSTYYADSVKGRFTISRDNAKNTVYLQMNSLKPEDTAVYYCAARVVYGAGLSSSGPKQYTRRFYYWGQGTQVTVSS” was “high polyreactivity”.
The value for “QVQIEESGGGLVQAGGSLRLSCAASGNIFPGNDMGWYRQAPRKERELVAAITSRDGSTYYADSVKGRFTISRDNAKNTVYLQMNSLKPEDTAVYYCNTDPDLYYLATAGYWSHDYWGQGTQVTVSS” was “low polyreactivity”; that for “QVQLVESGGGLVQAGGSLRLSCDASGLTFDYNAMGWYRQAPGKERELVAAITWSGGSTYYADSVKGRFTISRDNAKNTVYLQMNSLKPEDTAVYYCARDGVGRGYGYFTPLGYDYWGQGTQVTVSS” was “low polyreactivity”; that for “QVQLVESGGGLVQAGGSLRLSCAASGFTFGEYAMGWYRQQPGKERELVAAISSSSGSTYYADSVKGRFTISRDNAKYTVYLQMNSLKPEDTAVYYCAATTSPRSARYYYWGQGTQVTVSS” was “high polyreactivity”.
The value for “QVQLVESGGGLVQAGGSLRLSCAASGITFVVYAMGCYRPAPGKERELVASITYSGGSTYYADSVQGRFTISRDNAKNTVYLQMTSLKPEDTAVYYCNADGYTIYYLPYSDYDAYDYWGQGTQVTVSS” was “low polyreactivity”; that for “QVQLVESGGGLVQAGGSLRLSCAASGIIFRANAMGWYRQAPGKERELVAAISGRGSSTTYADSVKGRFTISRDNAKNTVYLQMNSLKPEDTAVYYCAAAGWSARGYNYWGQGTQVTVSS” was “high polyreactivity”.
In the case of “QVQLVESGGGLVQAGGSLRLSCAASGNIFPRYAMGWYRQATGKERELVAAITWRTSSTYYADSVKGRFTISRDNAKNTVYLQMNSLKPEDTAVYYCAKTSSRIAGEYWGQGTQVTVSS”, the “polyreactivity (PSR sort gate)” value is on record as “low polyreactivity”.
The value for “QFQLVESGGGLVQAGGSLRLSCAASGFTFWYYAMGWYRQAPGKERELVARITSRGADTYADSVKGRFTISRDNAKNTVYLQMNSLKPEDTAVYYCAVDPGFSWYEQYDYWGQGTQVTVST” was “low polyreactivity”.
Consider “QVQLQESGGGLVQAGGSLRQSYAASGYIFPSLAMGWYRQAPGKEREFVAAIGRGSTNNYADSVQGRFTISRDNAKNTAYQQMNSLKPEDTAVYYCAAAASPLTRHLYWGQGTQVTVSS”, for which the “polyreactivity (PSR sort gate)” value was “low polyreactivity”.
The value for “QVQLVESGGGLFQAGGSLRLSCAASGSTFFGYAMGWYRQAPGKERELVAAISSRGGTTNYADSVKGRFTISRDNAKNTVYLQMNSLKPEDNAVYYCNAKDTQEYNRVKYNYWGQGTQVTVSS” was “high polyreactivity”; that for “QVQLEESGGGLVQAGGSLRLSCAASGLTIFVNAMGWYRQAPGKERELVATISGGGSTYYADSVKARFTISRDNAKNTVYLQMNSLKPEDTAVYYCATVWPHRFRYEYWGQGTQVTVSS” was “low polyreactivity”.
“QVQLVESGGGLVQAGGSLRLSSAASGSIFRWNAMGWYRQAPGKERELVAVITWRGGRTYYADSVKGRFTISRDNAKNTVYLQMNSLKPEDTAVYYCGKGRLVTTLFGHYATFEYDSWGQGTQVTVSS”: the “polyreactivity (PSR sort gate)” value was “high polyreactivity”.
The value for “QVQLVESGGGLVQAGGSLRLSCAASGSIFYRNAMGWYRQATGKERELVAAISASGGSTYYADSVKGRFTISRDNAKNTVYLQINSLKPEDTAVYYCAVEYRKSRSYYPYYYWGQGTQVTVSS” was “high polyreactivity”.
As for “QVQLVESGGGIVQAGGSLRLSCAASGNTFYPYTMGWYRQAPGKERELVADITYIGGDTYYADSVKGRFTISRDNAKNTVYLQMHTLKPEDTAVYYCNAVEVDHDYFYYGQNEYWGQGTQVTVSS”, the entry is “low polyreactivity”.
On to “QVQLVESGGGLVQAGGSLRLSCAASGSTFAAYVMGWYRQAPGKEWELVAAITSGGSTYYADSVKGRFTISRDNAKNTVYLQMNSLKPEDTAVYYCAASWIRYRWRYGYWGQGTQVTVSS”, for which the “polyreactivity (PSR sort gate)” value is on record as “high polyreactivity”.
The value for “QVQHVESGGGLVQAGCSLRLSCAASGSIFSSYAMGWYRQAPGKERELVAAISQSGGDTYYADSVKGRFKISRDNAKNTVYLQMNSLKPEDTAVYYCAASVWFYPMDYWGQGTQVTVSS” was “low polyreactivity”; that for “QVQLVESGGGLVQAGGSLRLSCAASGFTFKRYAMGWYRQAPGKERELVAAISWSGGSTYYADSVKGRFTISRDNAKNTVYLQMNSLKPEDTAVYYCNAVCRFSTRREYWGQGTQVTVSS” was “high polyreactivity”.
As for “QVQLVESGGGLVQAGGSLRLSCAASGIIFYGYVMGWYRQAPGKERELVATITSSGGSTYYADSVKGRFTISRDNAKNTVYLQMNSLKPEDTAVYYCAAYYYYGAWVRHDYWGQGTQVTVSS”, the entry is “low polyreactivity”; as for “QVQLVESGGGLVQAGGSLRLSCAASGSTFGQYGMGWYRQAPGKERELVAAIRIGGSTNYADSVKGRFTISRDNAKNTVYLQMNSLKPEDTAVYYCNAGGTPTWTHGGYIELDYWGQGTQVTVSS”, “low polyreactivity”; as for “EVQLVESGGGLVQAGGSLRLSCAAYGSTFSTYAMGWYRQAPGKERELVAAISFGGGSTYADSVKGRFTISRDNAKNTVYLQMNSLKPEDTAVYYCNTDLYLYGWYPRDVQQYAGGDYWGQGTQVTVSS”, “low polyreactivity”.
The value for “QVQLVESGGGLVQAGGSLRLSCAASGYTFSRNAMGWYRPAPGKERELVAAITGSGGSTYYADSVKGRFTISRDNAKNTVYLQMNSLKPEDTAVYYCASKYYGRSFYYGYDYWGQGTQVTVSS” was “low polyreactivity”.
For the sequence “QVQLVESAGGLVQAGGSLRLSCAASVSIFFIYARGWYRQAPGKERELVATISRSDVSTFYGDSVKGRFTISRDNAKNTVYLQMNSLKPEDTAVYYCAAEWSPPEPIQLYGYWGQGTQVTVSS”, the “polyreactivity (PSR sort gate)” value is on record as “high polyreactivity”.
The value for “QVQLVESGGGLVQAGGSLRLSCAASGFTFYKYAMGWYRQAPGKERELVAGISSRGTRTYYADSVKGRFTISRDNAKNTVYLQMNSLKPEDTAVYDCAADSNTVNYDYWGQGTQVTVSS” was “high polyreactivity”; that for “QVQLVESGGGLVQAGGSLRLSCAASGSIFGYYTMGWYRQAAGKERELVAAITLDTGNTYYADSVKGRLTITRDNAKNTVYLQMNSLKPEDTAVYYCNTDYYSGYIARWSFDYWGQGTQVTVSS” was “low polyreactivity”.
The value for “QVQLVESGGGLVQAGGSLRLSCSASGSTFTYYAMGWYRQAPVKERELVADIDFSGTSTYYADSVKGRFTVSRDNAKNTVYLQMNSLKPEDTAVYYCATDDYNWFDYDYWGQGTHVTVSS” was “low polyreactivity”; that for “QVQLVESGGGLVQAGGSLRLSCAASGRIFPKYTMGWYRQAPGKERELVASINSSGRTTYADSVKGRFTITRDNAKNTVYLQMNSLKPEDTAVYYCAKRVFSARGYGYWGQGTQVTVSS” was “low polyreactivity”.
As for “QVQLVESGGGLVQAGGSLRLSCAASGYTFGKYAMGWYRQAPGKERELVAGISSRGGSTYYADSVKGRFTISRDNAKNTVYLQMNSLKPEDTAVYYCAAVAYTGGPRKLGFNYWGQGTQVSVSS”, the entry is “high polyreactivity”.
Consider “QVQLVQSGGGLVQAGGSLRLSCAASGSTIVTNAMGWYRQAPGKERELVAANTSVGSTYYADSVKGRFTISRDNAKNTVYLQMNSLKPEDTAVYYCNVVYRDQYNYWGQGTQVTVSS”, for which the “polyreactivity (PSR sort gate)” value was “low polyreactivity”.
As for “QVQLVESGGGLVQAGGSLRLSCAASGFTLPVYAMGWYRQAPGKERELVARITWSAGRTYYADSVKGRFTISRDNAKNTVYLQMNSLKPEDTAVYYCAAGPVSQQHSPGPHDYWGQGTQVTVSS”, the entry is “high polyreactivity”.
As for “QVQLVESGGGLVQAGGSLSLSCAASGSTFSRNTMGRYRQAPRKERELVAGISSSGGSTYYADSVKGRFTISRDNAKNTVYLQMNSLKQEDTAVYYCSARFYVSFVGYNYWGQGTQVTVSS”, the entry is “high polyreactivity”; as for “QFQLVESGGGLVQAGGRLRLSCAASGSTFLPYAMGWYRQAPGKESELVAAIRGRGGRTYYADSVKGRFTISRANAKNTVYLQMNSLKPEDSAVYYCAADVKGLSWTYDSWGQGTQVTVSS”, “high polyreactivity”.
As for “QVQLVESGGGLVQAGGSLRLSCAASGITFNQYVMGWYRQAPGKESELVAAISRSGATTYYADSVKGRFTISRDNAKNTVYLQMNSLKPEDTAVYYCAVRGSVSYTRYGYWGQGTQVTVSS”, the entry is “high polyreactivity”; as for “QVQLVESGGGLVQAGGSLRLSCAASGRIFTIYAMGWSRQAPGKERELVATISRRGGSTYYADSVKGRFTISRDNAKNTVYLKMNSLKPEDSAVYYFAADSVITWWAYYYWGQGTQVTVSS”, “high polyreactivity”.
Turning to “QVQLVESGGGLVQAGGSLRLSCAASGRSLRGYAMGWYRQAPGKERELVAAISRRGGSTRYADSVKGRFTISRDNAKNTVYLQMNSLKPEDTAVYYCAAPDFPKYYPTAYLQADEYWGQGTQVTVSS”, the “polyreactivity (PSR sort gate)” value is “high polyreactivity”.
As for “QVQLVESGGGLVQAGGSLRLSCAASGLTSLGNAMGWYRQAPGKERELVAAITRTGTSTYYADSVKGRFTISRDNAKNTVYLQMNSLKPEDTAVYYCAALDRYSTEYKYQLYKQEYDYWVQGTQVTVSS”, the entry is “low polyreactivity”; as for “QVQLVGSGGGLVQAGGSLRLSCAASGIIFQLYAMGWYRQAPGKERELVAAITSTGTTNYADSVKGRFTISRDNAKNTVYLQMNCLKPEDTAVYYCNADVGYWWGYYGYDYWGQGTQVTVSS”, “high polyreactivity”; as for “QVQLVESGGGLVQAGGSLRLSCAASGIISYRYGMGWYRQAPGKEGELVAAISWSGGSTYYADSVKGRFTISRDNAKNTVYLQMNSRKPEDTAVYYCAAYWRQAGVFKIYDYWGQGTQVTVSS”, “high polyreactivity”.
As for “QVQLVESGGGLVQAGGSLRLSCAASGRIFAGYAMGWYRQAPGKERELVAAISDGGTTNYADSVKGRFTISRDNAKNTVYLQMNSLKPEDTAVYYCAKVAAESYRYGYWGQGTQVTVSS”, the entry is “low polyreactivity”.

(Values after the nanobody polyreactivity screen of Harvey et al. (2022).)
